Experimental data: paper PMC7303358, “The Lotus japonicus Ubiquitin Ligase SIE3 Interacts With the Transcription Factor SIP1 and Forms a Homodimer” (Frontiers in Plant Science, 2020)

Target: the molecule itself
Experiment: SDS-PAGE without DTT in the loading buffer and immunoblot (band of dimer size); SIE3::GFP leaf extract in native buffer, incubated with 10 μM ATP at 4°C with 0 or 100 mM DTT; stopped with SDS loading buffer without DTT; anti-GFP blot

B1: SIE3::GFP (natural protein, L. japonicus, UniProt K0BV36 1-386, looked up)
chain: MELSTIKDAFDRVTKKQKSSSSKTQEVIDQIRQEIENVLDTMQSVNNTDHVLDHKTVLNELKASLLQTAPLSQMEGTQKELNVALSKYGKLLEKNFNTDISKAYRNIDIDVHTLNQIIANHFYRQGLFEIGDHFLSVVGEPESAAVMKSPFLEMYQILEAMKNQDLEPALKWATSNSDKLAQSGSDIVLKLHSMQFVKILQNGSRDEALHYARTYLSPFASSHIADIQKLMGSLLWTGKLDSSPYHALLSPSNWDRLAEELKRQFCNLLGQSYNSPLSVTISAGVQALPPLLKFMNVMVGKKQEWQTMNQLPVPVELDSELQFHSIFVCPVSKEQATEDNPPMLMSCGHVLCKQSISKMSKNGSKLFKCPYCPFDVDAALCKQLYF
notes: SIE3 of Lotus japonicus fused to GFP; the cloning of this construct is not described; Detected with anti-GFP antibody; monomer about 68.5 kDa, upper band about 137 kDa; source: N. benthamiana leaves, total proteins extracted in native buffer
For B1, the “stoichiometry N” value was 2.
